Measurements published in publication PMC3507807, “DNA binding specificity of ATAF2, a NAC domain transcription factor targeted for degradation by Tobacco mosaic virus” (BMC Plant Biology, 2012).

Tests used:
[1] = biological target: T1, ATAF2 (Arabidopsis thaliana) (UniProt Q9C598); test: EMSA; settings: EMSA: 20 mM Tris-HCl pH 8.0, 60 mM KCl, 5 mM MgCl2, 100 ug/ml BSA, 5% glycerol, 1 mM DTT, 0.5 ug poly(dI-dC) in 10 ul, 100-300 fmol probe, 25 C 30 min
T1 sequence: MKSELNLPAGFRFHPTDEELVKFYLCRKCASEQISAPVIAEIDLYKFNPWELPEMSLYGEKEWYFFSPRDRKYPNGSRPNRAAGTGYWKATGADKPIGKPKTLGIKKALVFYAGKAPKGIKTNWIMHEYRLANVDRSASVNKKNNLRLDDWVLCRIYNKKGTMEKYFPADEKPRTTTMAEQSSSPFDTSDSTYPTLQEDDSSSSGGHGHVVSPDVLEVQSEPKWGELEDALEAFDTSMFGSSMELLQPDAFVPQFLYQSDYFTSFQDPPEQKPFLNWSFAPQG

[2] = biological target: the molecule itself; test: SEC; Superdex-200 HR 10/30; ~160 ug purified protein, incubated 20 min at room temperature and run in 25 mM Tris-HCl pH 7.5, 10% glycerol, 500 mM NaCl, 0.5 mM EDTA; fractions checked by SDS-PAGE; mass markers 670, 158, 44 and 17 kDa
[3] = biological target: T2, ATAF2 (Arabidopsis thaliana, UniProt Q9C598 1-283); test: EMSA; binding not dramatically reduced; EMSA: 20 mM Tris-HCl pH 8.0, 60 mM KCl, 5 mM MgCl2, 100 ug/ml BSA, 5% glycerol, 1 mM DTT, 0.5 ug poly(dI-dC) in 10 ul, 100-300 fmol probe, 25 C 30 min; 5% native PAGE, 0.5X TBE. Footprint: same binding buffer, 10 fmol probe; settings: protein: recombinant; tags: N-terminal His6 (pTrcHisA); chain copies: 2; label: 5'-32P
T2 sequence: T1 sequence

TCAGAAGAGCAAGAAAATTAAAACACATAT (double strand) [M3 (nt 13-14 TC to GA)]
binding signal ([1]; stated as 47% reduction): 53 % of WT

TCAGAAGAGCAAGTCCCCTAAAACACATAT (double strand) [C2 (nt 13-18 TCAAAT to GTCCCC)]
binding signal ([1]; reduction >85%): < 15 % of WT

TCAGAAGAGCAATCAAACCAAAACACATAT (double strand) [M4 (nt 18-19 TT to CC)]
binding signal ([1]; stated as 87% reduction): 13 % of WT

TCAGAAGAGCAATCAAATTAAAACACATAT (double strand) [30-bp ATAF2 binding sequence (wild type)]
binding signal [1]: 100 % of WT

TCAGAAGAGCAATCAAATTAAAGAACATAT (double strand) [M5 (nt 23-24 AC to GA)]
binding signal ([1]; stated as 96% reduction): 4 % of WT

TCAGAAGAGCAATCAAATTAATTTTTTTAT (double strand) [C3 (nt 22-27 AACACA to TTTTTT)]
binding signal ([1]; reduction >85%): < 15 % of WT

TCCAAAGAGCAATCAAATTAAAACACATAT (double strand) [M1 (nt 3-4 AG to CA)]
binding signal ([1]; stated as 91% reduction): 9 % of WT

TCTTTTTAGCAATCAAATTAAAACACATAT (double strand) [C1 (nt 3-7 AGAAG to TTTTT)]
binding signal ([1]; reduction >85%): < 15 % of WT

B1: ATAF2 NAC domain (ATAF2-165, 1 aa to 165 aa) (domain or fragment, Arabidopsis, UniProt Q9C598 1-165, looked up)
chain: MKSELNLPAGFRFHPTDEELVKFYLCRKCASEQISAPVIAEIDLYKFNPWELPEMSLYGEKEWYFFSPRDRKYPNGSRPNRAAGTGYWKATGADKPIGKPKTLGIKKALVFYAGKAPKGIKTNWIMHEYRLANVDRSASVNKKNNLRLDDWVLCRIYNKKGTMEK
notes: ATAF2 (AT5g08790), Arabidopsis thaliana NAC domain transcription factor, truncated version containing only the NAC domain, residues 1-165; source: E. coli BL21 (+), pTrcHisA, purified (Ni-NTA)
stoichiometry N [2]: 2

B2: M2 (dsDNA)
DNA 1: TCAGAAGTACAATCAAATTAAAACACATAT
DNA 2: ATATGTGTTTTAATTTGATTGTACTTCTGA
binding result [3]: binds

B3: M6 (dsDNA)
DNA 1: TCAGAAGAGCAATCAAATTAAAACACACCT
DNA 2: AGGTGTGTTTTAATTTGATTGCTCTTCTGA
binding result [3]: binds
